Data: patent US20250011448A1 (STAIDSON BIOPHARMA, published 2025)
Where a chain is given by its changes, count along the chain named.

T1: human TNFR2 extracellular domain with C-terminal 10×His tag (human, UniProt P20333 23-257)
T1 construct: also called huTNFR2-His; His-tag-huTNFR2
T1 sequence: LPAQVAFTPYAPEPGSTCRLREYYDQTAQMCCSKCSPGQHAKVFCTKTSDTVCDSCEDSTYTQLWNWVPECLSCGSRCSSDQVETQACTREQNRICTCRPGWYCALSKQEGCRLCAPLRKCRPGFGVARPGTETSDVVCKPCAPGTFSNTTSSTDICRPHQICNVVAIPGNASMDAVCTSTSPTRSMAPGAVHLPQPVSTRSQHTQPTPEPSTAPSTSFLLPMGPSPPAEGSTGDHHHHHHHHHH

T2: human TNFR2 expressed on cells (Expi293 cells stably expressing huTNFR2) (human, UniProt P20333 23-461)
T2 construct: whole, on cells; Also used here as the target of the Treg assay (native TNFR2 on human primary Treg cells); also called huTNFR2 expressed cells; Expi293-TNFR2 cells
T2 sequence (looked up): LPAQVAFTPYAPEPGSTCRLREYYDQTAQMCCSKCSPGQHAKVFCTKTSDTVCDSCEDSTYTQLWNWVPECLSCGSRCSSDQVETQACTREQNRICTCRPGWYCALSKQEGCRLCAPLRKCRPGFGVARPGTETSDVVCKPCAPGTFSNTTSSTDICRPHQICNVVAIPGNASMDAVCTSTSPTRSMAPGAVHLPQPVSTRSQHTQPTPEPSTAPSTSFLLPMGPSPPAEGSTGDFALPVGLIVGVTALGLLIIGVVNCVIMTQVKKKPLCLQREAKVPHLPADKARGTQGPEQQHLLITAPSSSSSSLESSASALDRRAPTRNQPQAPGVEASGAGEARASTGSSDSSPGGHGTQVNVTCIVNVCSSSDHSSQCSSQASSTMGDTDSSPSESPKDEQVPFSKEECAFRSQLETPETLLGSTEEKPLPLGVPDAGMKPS

T3: cynomolgus monkey TNFR2 extracellular domain with C-terminal 10×His tag (cynomolgus monkey, UniProt P20333 23-257 (human entry))
T3 construct: also called cynoTNFR2-His; His-tag-cynoTNFR2
T3 chain: T1 sequence with S16G, S36P, P117Q, N164H, E210A, S216G, M223V

T4: cynomolgus monkey TNFR2 extracellular domain as used in the blocking ELISA (cynomolgus monkey, UniProt P20333 23-257 (human entry))
T4 construct: also called cynoTNFR2
T4 chain: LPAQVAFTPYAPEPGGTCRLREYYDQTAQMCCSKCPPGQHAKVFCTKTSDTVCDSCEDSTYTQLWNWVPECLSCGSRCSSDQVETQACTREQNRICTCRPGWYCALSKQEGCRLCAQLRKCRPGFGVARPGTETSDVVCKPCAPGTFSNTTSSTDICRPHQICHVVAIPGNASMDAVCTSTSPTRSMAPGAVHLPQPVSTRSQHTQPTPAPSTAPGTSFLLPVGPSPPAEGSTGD

B1: SB1901-68 humanized anti-TNFR2 antibody (antibody, V domains shown)
VH: QVQLVQSGAEVKKPGASVKVSCKASGYTFTDDYIDWVRQATGQGLEWIGEIYPGSGNTYYNEKFKGRVTMTRDTSISTAYMELSSLRSEDTAVYYCARSQVYGKIAMDHWGQGTLVTVSS
VL: DIVMTQSPDSLAVSLGERATINCRASESVDNSGNSFMHWYQQKPGQPPKLLIYRASNLESGVPDRFSGSGSRTDFTLTISSLQAEDVAVYYCQQSKEDPYTFGQGTKVEIK
B2: SB1901-69 humanized anti-TNFR2 antibody (antibody, V domains shown)
VH: B1 VH with I48M, T74K
VL: B1 VL with S71A, R72G
B3: SB1901-80 humanized anti-TNFR2 antibody (antibody, V domains shown)
VH: B1 VH with T41P, I76T, A79V
VL: B1 VL
B4: SB1901-74 (antibody, V domains shown)
VH: B1 VH with D73N, S75A
VL: B1 VL
notes: humanized version of 51B5; also called SB1901-74 humanized anti-TNFR2 antibody
B5: SB1901-78 (antibody, V domains shown)
VH: B1 VH with R72A, T74K
VL: B1 VL
notes: humanized version of 51B5; also called SB1901-78 humanized anti-TNFR2 antibody
B6: SB1901-82 (antibody, V domains shown)
VH: B1 VH with T41P, I48M, I76T, A79V
VL: B1 VL
notes: humanized version of 51B5; also called SB1901-82 humanized anti-TNFR2 antibody
B7: 51B5 chimeric anti-TNFR2 antibody (antibody, V domains shown)
VH: QVQLQQSGAELARPGTSVKLSCKASGYTFTDDYIDWVKQRTGQGLEWIGEIYPGSGNTYYNEKFKGKATLTADKSSSTAYMQLSSLTSEDSAVYFCARSQVYGKIAMDHWGQGTSVTVSS
VL: DIVLTQSPASLAVSLGQRATISCRASESVDNSGNSFMHWYQQIPGQPPKLLIYRASNLESGIPARFSGSGARTDFTLTIDPVGAVDVATYYCQQSKEDPYTFGGGTKLEIE
notes: Chimeric: mouse variable domains with human constant regions, made as recombinant IgG1
B8: 6F12 chimeric anti-TNFR2 antibody (antibody, V domains shown)
VH: QIQLVQSGPELKKPGETVKISCKTSGYTFTIYGMNWVKQAPGKGLKWMGWIHTYTGEPTYADDFKGRFVFSLETSDSTAYLQINNLKSEDMATYFCVRRERYGSFWGQGTLVTVSA
VL: DIVLTQSPASLAVSLGQRATISCTASQSVDYGGVSYMNWYQQKPGQPPKLLIYGASNQESGIPVRFSGSGSGTDFTLNIHPVEEEDAATYYCQQSNEDPPTFGAGTKLELK
notes: as for B7

Legend:
[1] = molecular target: T1, human TNFR2 extracellular domain with …; assay: BLI (Octet RED96), antibody captured on AHC biosensor, His-tag-huTNFR2 in solution, 1:1 model
Protocol: (§1) The following kinetic assay was performed using anti-human IgG Fc capture (AHC) biosensors (ForteBio) in kinetics buffer (PBS, 0.1% Tween-20 and 1% bovine serum albumin): (a) antibody (2 μg/mL) for 300 sec, (b) baseline for 120 sec, (c) association with His-tag-huTNFR2 (2.5, 0.5 and 0 μg/mL) for 420 sec and (d) dissociation for 1200 sec. Data fitting and analysis was performed with Octet data analysis software 8.0 (ForteBio) using a 1:1 binding model after Savitzky-Golay filtering. The dissociation constant (Kd) was calculated as the ratio of Koff/Kon.

[2] = molecular target: T2, human TNFR2 expressed on cells (Expi293 …); assay: flow cytometry on Expi293 cells stably expressing huTNFR2, y axis TNFR2 binding (MFI)
Protocol: The coding sequence of huTNFR2 (Uniprot, P20333) was cloned into a lentiviral vector and the virus was packaged according to the instruction of the virus packaging kit (Lenti-X™ Packaging Single Shots, Cat #631275, Takada). The Expi293 cells were transduced with the recombinant virus and selected by puromycin. The cell line stably expressing huTNFR2 was incubated with anti-TNFR2 antibodies in PBS with 0.5% BSA, 1 mM EDTA, and 0.1% sodium azide (FACS buffer) for 30 minutes at 4° C. The cells were washed, and then incubated with 10 nM phycoerythrin (PE) conjugated anti-Human Fe Ab (Biolegend, cat #409304) for 20 minutes at 4° C. Cells were washed and then […] by flow cytometry with Attune (ThermoFisher Scientific). Data were analyzed with FlowJo software. Antibody binding is represented as median fluorescence intensity (MFI).
FACS based binding and blocking assays of humanized antibodies were performed as described above.

[3] = molecular target: T3, cynomolgus monkey TNFR2 extracellular …; assay: ELISA, plate coated with His-tagged TNFR2 ECD, serial dilution of chimeric IgG
Protocol: TNFR2 binding of purified recombinant chimeric antibodies: The huTNFR2, cynoTNFR2 antigen binding ELISA was performed on the purified recombinant chimeric antibodies. Briefly, 384-well, clear, flat bottom, high binding plates (VWR, cat #29444-096) were coated overnight at 4° C. with 1 μg/mL of huTNFR2 or cynomolgus monkey TNFR2-His in PBS. After removing the coating solution, the plates were blocked by adding blocking buffer and incubated at room temperature for 1 hour. Plates were then washed 3 times with wash buffer. Serial dilution of purified antibodies in PBS was added to individual well followed by incubation at room temperature for 1 hour. Plates were washed 3 times with wash buffer. Then 50 μL/well of goat anti hu Kappa —AP (Southern Biotech, cat #2061-04) at 1:3000 dilution or goat anti human IgG Fc-AP at 1:3000 dilution in ELISA diluent was added, incubated at room temperature for 1 hour, washed 5 times with wash buffer and developed for 30 minutes with 50 μL/well of pNPP substrate. Plates were analyzed with a Bio-TEK at 405 nm. The chimeric TNFR2 antibodies were tested positive for binding to huTNFR2 and cynoTNFR2. The TNFR2 binding EC50 values are shown in Table 6, FIG. 1A (for huTNFR2) and FIG. 1B (for cynoTNFR2).

[4] = molecular target: T3, cynomolgus monkey TNFR2 extracellular …; assay: BLI (Octet RED96), antibody captured on AHC biosensor, His-tagged TNFR2 in solution, 1:1 model
Protocol: as §1, with “0 μg/mL) and His-tag-cynoTNFR2 (2.5, 0.5 and 0 μg/mL) for 420” for “0 μg/mL) for 420”, “Savitzky-Golay filtering.” for “Savitzky-Golay filtering. The dissociation constant (Kd) was calculated as the ratio of Koff/Kon.”

[5] = molecular target: T4, cynomolgus monkey TNFR2 extracellular …; assay: blocking ELISA: antibody pre-mixed with cynoTNFR2, binding of cynoTNFR2 to coated cynomolgus monkey TNFα read out
Protocol: 96-well round bottom ELISA plates were coated overnight at 4° C. with 50 μL/well of 0.5 μg/mL human TNFα recombinant protein (R&D system, Cat #210-TA-100) in coating buffer. After removing the coating solution, blocking buffer was added into the plates followed by incubation at room temperature for 1 hour in order to block unspecific binding. During the blocking period, hybridoma antibodies samples were mixed with 0.5 μg/mL TNFR2-huFc at a 1:1 volume ratio and incubated at room temperature for another 1.5 hours. Then 50 μL/well of antigen-antibody mix solution was transferred into TNFα coated wells and incubated at room temperature for 1.5 hours. Plates were then washed 5 times with wash buffer. Then, 50 μL/well of goats anti-human IgG Fc-AP (Southern Biotech, cat #2014-04) at 1:2000 dilution in assay buffer was added, incubated at room temperature for 1 hour, washed 4 times with wash buffer and developed for 30 minutes with 50 μL/well of pNPP substrate. Plates were analyzed with a Synergy HT (Bio-TEK) at 405 nm. Parental hybridomas with the desired human and cynoTNFR2 binding as well as the ability to block human TNFR2 and human TNFα binding were prioritized for subcloning and further characterization. Subcloning was carried out with limited dilution and visual inspection was performed to ensure clonality. Hybridoma subclones were screened with the same binding and blocking assays and selected positive hits were cryopreserved.
TNFR2 blocking by purified recombinant chimeric antibodies: Human TNFR2 blocking ELISA was performed on purified recombinant chimeric antibodies following the same protocol as described above, except that 50 μL/well of serial dilution of purified antibodies (starting at 10 μg/mL, 1:3 dilution) in assay buffer was added into the reaction. The blocking IC₅₀ value represents the antibody concentration that inhibited 50% of huTNFR2 or cynoTNFR2 binding to coated human TNFα or cynomolgus monkey TNFα.

[6] = molecular target: T1, human TNFR2 extracellular domain with …; assay: BLI (Octet RED96), antibody captured on AHC biosensor, His-tagged TNFR2 in solution, 1:1 model
Protocol: as §1, with “0 μg/mL) and His-tag-cynoTNFR2 (2.5, 0.5 and 0 μg/mL) for 420” for “0 μg/mL) for 420”, “Savitzky-Golay filtering.” for “Savitzky-Golay filtering. The dissociation constant (Kd) was calculated as the ratio of Koff/Kon.”

| Binder | Kd [1] [nM] | koff [1] [s⁻¹] | kon [1] [M⁻¹ s⁻¹] | EC50 (read off the curve) [2] [nM] | further results |
| --- | --- | --- | --- | --- | --- |
| B1 | 1.95 | 0.000796 | 408000 |  |  |
| B2 | 1.25 | 0.000513 | 410000 |  |  |
| B3 | 2.52 | 0.000937 | 373000 | ~0.6 |  |
| B4 |  |  |  | ~0.6 |  |
| B5 |  |  |  | ~0.6 |  |
| B6 |  |  |  | ~0.6 |  |
| B7 |  |  |  |  | EC50 [3]: 0.0494 nM; Kd [4]: 0.672 nM; koff [4]: 0.00065 s⁻¹; kon [4]: 967000 M⁻¹ s⁻¹; IC50 [5]: 0.968 nM |
| B8 |  |  |  |  | Kd [6]: 3.77 nM; koff [6]: 0.000886 s⁻¹; kon [6]: 239000 M⁻¹ s⁻¹ |
